Consider four molecules from patent US20130079286A1 (Pieris, published 2013).

For experiment [1], the target named is T1, BSA (bovine, UniProt P02769 25-607).
T1 construct: also called bovine serum albumin
Kind of experiment: ELISA on coated protein. (An ELISA detects its analyte on a solid surface through an enzyme-linked reagent.)

The target in experiment [2] is T2, recombinant human fibronectin fragment FN789 (human, UniProt P02751 1173-1539).
T2 construct: the entry may be a nucleic acid
Kind of experiment: ELISA on coated protein.

The target of experiment [3] is T3, recombinant human fibronectin fragment FN7B8 (human, UniProt P02751 1173-1448).
T3 construct: no separate number is printed for the protein, so the entry may be a nucleic acid
Kind of experiment: SPR (BIAcore X), FN7B8 amine-coupled (about 500 RU), mutein as analyte. From the text: FIG. 13 depicts the kinetic real time analysis of Lcn2 mutein N9B measured on a Biacore instrument. FN7B8 was coupled via amine chemistry to a CMD 200 m sensor chip (ΔRU=500) and the purified Lcn2 mutein was applied at varying concentrations. The measured signal is shown as a grey line whereas the curve fit is depicted as a black line in each case.
FIG. 14 depicts the kinetic real time analysis of Lcn2 mutein N7E measured on a Biacore instrument. FN7B8 was coupled via amine chemistry to a CMD 200 m sensor chip (ΔRU=500) and the purified Lcn2 mutein was applied at varying concentrations. The measured signal is shown as a grey line whereas the curve fit is depicted as a black line in each case.
Real time analysis of Lcn2 muteins was performed on a BIAcore X system (BIAcore, Uppsala, Sweden) using HBS/ET (20 mM Hepes, pH 7.5, 150 mM NaCl, 1 mM EDTA containing 0.005% (v/v) Tween 20) as running buffer. 200 μg/ml solution of recombinant FN7B8 in 10 mM Na-acetate, pH 4.0 was immobilized on a CMD 200 m Sensorchip (XanTec bioanalytics, Duesseldorf, Germany) using standard amine coupling chemistry (Biacore, Uppsala, Sweden), resulting in a ligand density of about 500 resonance units (RU). The purified Lcn2 mutein was applied at a flow rate of 25 μl/min at concentrations of 2.5 up to 160 nM. The sensorgrams were corrected by subtraction of the corresponding signals measured for the control channel, which had been activated and blocked with ethanolamine.
(In general: SPR reads the build-up and loss of mass on a sensor chip optically.)

The target of experiment [4] is T4, recombinant fibronectin single domain ED-B (human).
T4 construct: the entry may be a nucleic acid; also called extra domain-B; extra-domain B
Kind of experiment: SPR (BIAcore X), ED-B immobilised by amine coupling, Lcn2 mutein injected at 0 to 160 nM, 1:1 model. On the procedure:
(§1) FIG. 27 depicts the kinetic real time analysis of Lcn2 variants N7A (A), N7E (B), N9B (C) and N10D (D) measured on a Biacore X instrument. The single fibronectin domain ED-B was coupled via amine chemistry to a CMD 200 m sensor chip (ΔRU=180) and the purified Lcn2 variants were applied at varying concentrations. The measured signals are shown as traces together with the curve fits.
(§2) Real time interaction analysis of Lcn2 muteins was performed on a BIAcore X instrument using HBS/ET (20 mM Hepes, pH 7.5, 150 mM NaCl, 1 mM EDTA containing 0.005% (v/v) Tween 20) as running buffer. 100 μg/ml solution of recombinant ED-B in 10 mM Na-acetate, pH 4.0 was immobilized on a CMD 200 m Sensorchip using standard amine coupling chemistry, resulting in a ligand density of about 180 resonance units (RU). The purified Lcn2 mutein was applied at a flow rate of 25 μl/min at concentrations of 2.5 up to 160 nM. The sensorgrams were corrected by subtraction of the corresponding signals measured for the control channel, which had been activated and blocked with ethanolamine. […] In the case of N10D the heterogeneous analyte competing reaction model was used for data fitting, resulting in two sets of kinetic constants.

Experiment [5] has as its target T4, recombinant fibronectin single domain …. Kind of experiment: SPR (BIAcore X), ED-B amine-coupled (about 180 RU), mutein as analyte. The procedure:
as §1, §2

For experiment [6], the target named is T3, recombinant human fibronectin fragment …. Kind of experiment: ELISA: FN7B8 coated, mutein titrated, detected via Strep-tag II.
Experiment [7] has as its target T5, Trx-Aβ28 fusion protein (Escherichia coli (strain K12), UniProt P0AA25 1-76 = thioredoxin, Biotin-labelled through an NHS ester (2:1) in the capture and competitive ELISAs; unlabeled in the direct ELISA and as competitor.).
T5 construct: the entry may be a nucleic acid; also called TrxAbeta28H6
Kind of experiment: capture ELISA: mutein captured via Strep-tag II, biotinylated Trx-Aβ28 titrated. On the procedure: (§3) FIG. 19 depicts the binding activity of the Lcn2 muteins H1GA, H1GV, and H1-G1 in capture ELISAs with the biotinylated Aβ targets Aβ40 (A) and Trx-Aβ28 (B). StrepMAB-Immo was immobilized at 10 μg/ml on microtitre plates and employed for capturing of 1 μM Lcn2 muteins via the Strep-tag H. Binding of the biotinylated targets, applied in a dilution series, was then detected by incubation with ExtrAvidin/AP and a subsequent chromogenic reaction with pNPP. […] The data were fitted to a monovalent binding model.

Experiment [8] has as its target T5, Trx-Aβ28 fusion protein. Kind of experiment: capture ELISA: mutein captured, biotinylated Trx-Aβ28 titrated. The procedure:
(§4) FIG. 5 depicts the binding activity of the Lcn2 muteins H1-G1, S1-A4, and US7 in capture ELISAs with different biotinylated Aβ targets. StrepMAB-Immo at 10 μg/ml was immobilized on microtitre plates and employed for capturing of 1 JAM Lcn2 muteins via the Strep-tag H. In figures A to C the binding of the Lcn2 muteins S1-A4 and US7 to (A) biotinylated Aβ40, (B) biotinylated Trx-Aβ28, and (C) biotinylated MBP-Aβ40 are shown. Binding was detected by incubation with ExtrAvidin/AP and a subsequent chromogenic reaction with pNPP. Ovalbumin (Ova), thioredoxin (Trx), and maltose binding protein (MBP) were used as negative controls. Additionally, binding of wild-type (wt) lipocalin was tested. The data were fitted to a monovalent binding model.
(§5) For selective capturing of the Lcn2 muteins carrying the C-terminal Strep-tag II (Schmidt and Skerra (2007) Nat. Protoc. 2, 1528-1535), a 96-well MaxiSorp polystyrene microtitre plate (Nunc, Langenselbold, Germany) was coated with 10 μg/mL StrepMAB-Immo (IBA, Göttingen, Germany) in PBS over night at 4° C. and blocked with 3% (w/v) BSA in PBS/T at room temperature for 1 h. After 3 washing steps with PBS/T, 50 μL of a 1 μM solution of the purified Lcn2 muteins from Example 7 were applied to all wells for 1 h. After washing, 50 μL of a dilution series of the biotinylated targets Aβ40, MBP-Aβ40 or Trx-Aβ28 from Example 2 were added and incubated for 1 h whereby the biotinylated forms of Ova, MBP and Trx from Example 2 served as negative control proteins. The wells were washed again and bound conjugate was detected with 50 μL of ExtrAvidin/AP conjugate (Sigma-Aldrich, Steinheim, Germany) diluted 1:5000 in PBS/T for 1 h, followed by signal development in the presence of 100 μL 0.5 mg/mL p-nitrophenyl phosphate (AppliChem, Darmstadt, Germany) in 100 mM Tris/HCl, pH 8.8, 100 mM NaCl, 5 mM MgCl₂.

The target in experiment [9] is T6, biotinylated Aβ40 peptide (human, C-terminal biotin group attached via a lysine spacer).
T6 construct: Synthetic peptide (Peptide Speciality Laboratory) with a C-terminal biotin on a lysine spacer; used in the capture ELISAs
Kind of experiment: capture ELISA: mutein captured via Strep-tag II on StrepMAB-Immo, biotinylated Aβ40 titrated. On the procedure:
as §4, §5

For experiment [10], the target named is T6, biotinylated Aβ40 peptide. Kind of experiment: capture ELISA: mutein captured via Strep-tag II, biotinylated Aβ40 titrated. The procedure: as §3
Experiment [11] addresses T5, Trx-Aβ28 fusion protein. Kind of experiment: direct ELISA: Trx-Aβ28 coated, mutein titrated, detected via Strep-tag II. The procedure:
The Aβ targets Trx-Aβ28 and MBP-Aβ40 as well as the control protein maltose binding protein (MBP) were immobilized at 2 μM in PBS over night. Bound Lcn2 muteins were detected via their Strep-tag II using Streptavidin/AP followed by a chromogenic reaction with pNPP. As a control, the binding of wild-type (wt) lipocalin was tested. The data were fitted to a monovalent binding model.
Alternatively, for a “direct” ELISA, 2 μM unlabeled Aβ40 target from Example 2 was adsorbed onto a 96-well MaxiSorp polystyrene microliter plate (Nunc, Langenselbold, Germany) and incubated with the purified Lcn2 mutein, which was detected via the Strep-tag II using a 1:1500 dilution of Streptavidin/AP conjugate (GE Healthcare UK Ltd, Buckinghamshire, UK). As a control, 2 μM MBP from Example 2 was adsorbed onto the ELISA plate. Absorption at 405 nm was measured in a SpectraMax 250 reader (Molecular Devices, Sunnyvale, USA).

Experiment [12] concerns the target T7, ovalbumin (UniProt P01012 2-386).
T7 sequence (looked up): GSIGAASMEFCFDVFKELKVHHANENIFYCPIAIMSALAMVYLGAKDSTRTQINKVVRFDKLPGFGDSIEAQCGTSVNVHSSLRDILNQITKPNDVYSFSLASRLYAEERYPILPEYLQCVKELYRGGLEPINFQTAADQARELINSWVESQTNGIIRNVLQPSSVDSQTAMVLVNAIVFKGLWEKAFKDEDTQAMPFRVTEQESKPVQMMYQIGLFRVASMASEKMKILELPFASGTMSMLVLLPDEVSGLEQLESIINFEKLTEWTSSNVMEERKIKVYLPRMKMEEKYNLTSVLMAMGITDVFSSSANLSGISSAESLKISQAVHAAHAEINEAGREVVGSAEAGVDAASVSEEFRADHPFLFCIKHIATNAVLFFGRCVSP
Kind of experiment: capture ELISA: 1 µM Lcn2 protein captured via Strep-tag II on coated StrepMAB-Immo, biotinylated target titrated, ExtrAvidin/AP + pNPP. On the procedure: as §4, §5

For experiment [13], the target named is T4, recombinant fibronectin single domain …. Kind of experiment: SPR (BIAcore X), ED-B amine-coupled; heterogeneous analyte competing reaction model, first set. The procedure:
as §2

The target is the same in experiment [14]. Kind of experiment: SPR (BIAcore X), ED-B amine-coupled; heterogeneous analyte competing reaction model, second set. On the procedure: as §2

T3 sequence (P02751 other isoform, or with tags, fused parts or gaps limits assumed): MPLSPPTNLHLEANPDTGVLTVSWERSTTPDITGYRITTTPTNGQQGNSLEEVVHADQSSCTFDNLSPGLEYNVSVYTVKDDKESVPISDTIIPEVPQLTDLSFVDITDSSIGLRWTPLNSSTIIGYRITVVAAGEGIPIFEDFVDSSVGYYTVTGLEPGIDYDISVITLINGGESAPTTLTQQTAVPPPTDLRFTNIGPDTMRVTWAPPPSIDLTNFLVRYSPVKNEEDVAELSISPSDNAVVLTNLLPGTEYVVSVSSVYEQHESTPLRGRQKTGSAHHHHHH
T4 sequence (chain, as listed by the source limits assumed): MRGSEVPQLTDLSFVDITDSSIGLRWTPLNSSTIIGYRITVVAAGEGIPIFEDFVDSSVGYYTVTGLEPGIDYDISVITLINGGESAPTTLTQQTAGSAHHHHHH
T2 sequence (P02751 other isoform, or with tags, fused parts or gaps limits assumed): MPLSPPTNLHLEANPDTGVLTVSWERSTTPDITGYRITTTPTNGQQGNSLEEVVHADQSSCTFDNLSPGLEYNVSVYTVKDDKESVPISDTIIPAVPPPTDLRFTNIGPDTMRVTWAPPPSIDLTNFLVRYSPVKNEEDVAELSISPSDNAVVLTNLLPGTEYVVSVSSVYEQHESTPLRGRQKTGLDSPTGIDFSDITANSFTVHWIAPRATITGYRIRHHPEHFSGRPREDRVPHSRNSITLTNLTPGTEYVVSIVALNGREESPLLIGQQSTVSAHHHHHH
T1 sequence (P02769 25-607 limits assumed): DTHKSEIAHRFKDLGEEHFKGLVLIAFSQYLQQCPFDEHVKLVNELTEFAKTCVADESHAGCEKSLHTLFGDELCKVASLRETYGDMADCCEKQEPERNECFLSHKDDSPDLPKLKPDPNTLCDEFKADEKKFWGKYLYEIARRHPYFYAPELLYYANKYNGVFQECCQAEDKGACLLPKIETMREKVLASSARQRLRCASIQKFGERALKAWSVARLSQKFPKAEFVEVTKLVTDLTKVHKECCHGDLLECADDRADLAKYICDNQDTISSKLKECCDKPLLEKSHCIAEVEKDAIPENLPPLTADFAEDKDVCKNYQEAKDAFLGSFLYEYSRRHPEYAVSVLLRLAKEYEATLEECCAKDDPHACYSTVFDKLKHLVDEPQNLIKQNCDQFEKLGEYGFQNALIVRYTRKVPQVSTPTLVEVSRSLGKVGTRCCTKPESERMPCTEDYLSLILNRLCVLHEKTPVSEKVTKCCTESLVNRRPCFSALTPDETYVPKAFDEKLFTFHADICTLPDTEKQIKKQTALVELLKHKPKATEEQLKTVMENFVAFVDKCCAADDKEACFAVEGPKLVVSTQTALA
T6 sequence (peptide, as listed by the source): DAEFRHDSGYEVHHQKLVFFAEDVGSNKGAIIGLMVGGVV

B1: Lcn2 mutein N7A (designed binder)
chain: QDSTSDLIPAPPLSKVPLQQNFQDNQFHGKWYVVGKAGNHDLREDKDPRKMQATIYELKEDKSYNVTNVRFVHKKCNYRIWTFVPGSQPGEFTLGNIKSWPGLTSWLVRVVSTNYNQHAMVFFKRVYQNRELFEITLYGRTKELTNELKENFIRFSKSLGLPENHIVFPVPIDQCIDG
In the case of B1, the binding result in experiment [1] and in experiment [2] was “no binding” throughout. Moreover, the Kd (in general, the concentration at which binding is half-saturated) in experiment [3] amounted to 5.8 nM; in experiment [4], 120 nM; in experiment [5], 127 nM; in experiment [6] it was 14.8 nM. Further, the koff (commonly the first-order rate constant of dissociation) in experiment [3] amounted to 0.026 s⁻¹; in experiment [5], 0.138 s⁻¹. Besides, the kon (as a rule, the second-order rate constant of association) in [3] came out at 4.6e+06 M⁻¹ s⁻¹; in [5], 1.8e+06 M⁻¹ s⁻¹.

B2: Lcn2 mutein H1-G1 (designed binder)
chain: QDSTSDLIPAPPLSKVPLQQNFQDNQFHGKWYVVGCAGNVLLREDKDPLKMYATIYELKEDKSYNVTSVGFDDKKCLYKIRTFVPGSQPGEFTLGRIKSEPGGTSWLVRVVSTNYNQHAMVFFKEVAQNRETFNITLYGRTKELTSELKENFIRFSKSLGLPENHIVFPVPIDQCIDG
notes: carries a free Cys at position 36
For the molecule B2, the Kd in experiment [7] is 24.4 nM; in experiment [8], 24.3 nM; in [9], 16.2 nM; in experiment [10], 21.5 nM; in [11], 290 nM. Further, the binding result in [12] is given as “no binding”.

B3: Lcn2 mutein N10D (designed binder)
chain: QDSTSDLIPAPPLSKVPLQQNFQDNQFHGKWYVVGAAGNTWLREDKDPYKMQATIYELKEDKSYNVTNVLFMSKKCRYMIHTFVPGSQPGEFTLGSIKSWPGLTSWLVRVVSTNYNQHAMVFFKRVYQNREFFGITLYGRTKELTSELKENFIRFSKSLGLPENHIVFPVPIDQCIDG
notes: also called NIOD; NI OD
On to B3, for which the binding result in experiment [1] and in experiment [2] was “no binding” in each case. The koff turned out to be 0.064 s⁻¹ in experiment [13], 0.058 s⁻¹ in experiment [3] and 0.00335 s⁻¹ in [14]. For the same molecule, the results for the kon in [13], in experiment [3] and in experiment [14] were 621000 M⁻¹ s⁻¹, 1.5e+06 M⁻¹ s⁻¹ and 29400 M⁻¹ s⁻¹, respectively. Besides, the Kd in experiment [3] was found to be 38 nM; in experiment [6] it was 51.2 nM.

B4: Lcn2 mutein N7E (designed binder)
chain: QDSTSDLIPAPPLSKVPLQQNFQDNQFHGKWYVVGEAGNSLLREDKDPRKMYATIYELKEDKSYNVTSVRFRSKKCHYLIRTFVPGSQPGEFTLGLIKSKPGHTSFLVRVVSTNYNQHAMVFFKTVAQNREYFFITLYGRTKELTSELKENFIRFSKSLGLPENHIVFPVPIDQCIDG
On to B4, for which the Kd worked out at 7.2 nM in experiment [3], 17 nM in experiment [4], 17.3 nM in experiment [5] and 30 nM in experiment [6]. For the same molecule, the koff is 0.03 s⁻¹ in experiment [3] and 0.054 s⁻¹ in experiment [5]. Besides, the kon in [3] amounted to 4.1e+06 M⁻¹ s⁻¹; in [5] it was 3.1e+06 M⁻¹ s⁻¹.
